One experiment concerns the target GST-H-Ras (UniProt P01112).
A further experiment concerns the target GST-RAB40C (UniProt Q96S21).

As to “GST-GAP (DAB2IP GAP domain) (domain or fragment)”, the Kcat/KM ratio (catalytic efficiency) of GAP-stimulated GTP hydrolysis, release of inorganic phosphate in the experiment with GST-H-Ras was 229; in the experiment with GST-RAB40C it was 114.
As for “GST-GAP R385L (DAB2IP GAP domain, catalytically defective mutant) (domain or fragment)”, the Kcat/KM ratio (catalytic efficiency) of GAP-stimulated GTP hydrolysis, release of inorganic phosphate was 102 with GST-H-Ras and 66 with GST-RAB40C.

The values are drawn from paper PMC5689619.
